From a protein production outcome set (Wang et al. 2014)

Assay: label from the status in PepcDB records

## MSLSRRLTMHWFAQAPANIALIKYMGKKDENSNLPDNSSLSYTLSNLLSSVKLEKLPTKKDIWEPLTIPGAPEFNLSVEAQKRFIDHLVRLKEYFGYVGGFLIQSSNNFPHSSGLASSASSFAALTKCASIALSELTQKPLPSIDEQAQLSRLGSGSSCRSFYAPWALWTGDKVSAIDLPYKDLLHQVIVISSQEKEIPSRVAHKLVKTSPFYETRSERAEANLKLLLNAFENKDWTSIYQICWHEFLDMHQLFKTCEKPFSYITDNTLHILSVIEKFWNEKGDGPVVTMDAGPNVHLLYRSDQTDLARQFKSDHLVGNYDVLEGHHHHHH
  protein production: not failed

## MSLSTWISYTIACILLISPPGPTVTYLITTSMTHGKKTAYEIVWGSFWGGLVCLILSFIGIGAILKTSGTLYAILRLLGIAYLIYLGIKSFLDANKVKDKTEKMVPPEKGEAFKNGFLLIFLNPKNIIFFASFLPQFINHNSPFLLQTTILSLTYLIVGLINDYLYSFFASNIGNVLGKHSEKWIAYIGGVAMILSAIIVVFQNF
  protein production: failed

## MSLSVMFDPQSYPYPSRRNVVYAKNGMVATSQPLAAQAGLDILKAGGNAIDAAIATATALTVLEPTSNGIGSDAFALVWTKGKLHGLNGSGRAPMSLTMEAVKAKGYEQELPPYGVIPVTVPGAPGAWAELAKMYGNLPLAASLAPAIRYAEEGYPVTPTLAKYWKAAYDRFKTEWTDDVYQPWFDTFAPKGRAPRVGEVWRSQGHADTLRSIAESNGESFYRGELADQIHAFFDKHGGYLTKEDLACYRPEWVEPISIDYRGYRVWEIPPNGQGLVALEALNIVKGFEFYHKDTVDTYHKQIEAMKLAFVDGMKYVTEPSDMSVSVEQLLSDEYATERRKEIGEQALTPEPGTPPRGGTVYLATADGDGNMVSFIQSNYMGFGSGVVVPGTGIAMQNRGHNFSLDPNHDNALKPGKRTYHTIIPGFLTKNDQPIGPFGVMGGFMQPQGHMQVMMNTIDFGLNPQAALDAPRWQWTNGKQVQVEPTFPVDIAQALVRRGHKIQVVLDEGAFGRGQIIWRDPTTGVLAGGTEPRTDGQVAAWEGHHHHHH
  protein production: not failed

## MSLTEPRIVATYHIASDAERIEQRALALAIEQSVECPLEAIGDPAIVANIVGRVEDVAELQPGRYAVRIGLAAATAPAEPGQLLNMLFGNSSIQPDIALADVELPAHYLTAFGGPRVGLAGIRTLTGAQSRALTASALKPQGLSPAALASIAHQLALGGVDLIKDDHGLADQAFSPFAERAAAVGKAVREANAARGGRTLYAPNISGTLDDMRRQLGVIRDEGIGAVLVAPMIVGVSNFHAIVKEAAGLVVVAHPAMAGAAKIAAPLLLGRLFRLFGADATVFPNYGGRFAYSTASCLALAQAARDPFGKLNACIPTPAGGIMLQRVNELLRFYGQDVMLLIGGSLLASRERLTEQASRFVNKVADYGQREGHHHHHH
  protein production: not failed

## MSLTEYVHGYSEREALRLSEQAETLEKLLHHDTVYPPGAKVLEAGCGIGAQTVILAKNNPDAEITSIDISPESLEKARENTEKNGIKNVKFLQANIFSLPFEDSSFDHIFVCFVLEHLQSPEEALKSLKKVLKPGGTITVIEGDHGSCYFHPEGKKAIEAWNCLIRVQAYMKGNSLVGRQIYPLLQESGFEKIRVEPRMVYIDSSKPELVDGFILKTIIPMVEGVKEQSLKMQIIKEEEWEKGIEELHKTAEHGGTFCYTFFKGWGTKEGHHHHHH
  protein production: not failed

## MSLTIKLIAIDIDGTLLNEKNELAQETIDAVQAAKAQGIKVVLCTGRPLTGVQPYLDAMGISGDDQYAITFNGSVAQTISGKVLTNHSLTYEDYIDLEAWARKVRAHFQIETPDYIYTANKDISAYTIAESYLVRMLIRYREVSETPRDLTISKAMFVDYPQVIEQVKANMPQDFKDRFSVVQSAPYFIEVMNRRASKGGTLSELVDQLGLTADDVMTLGDQGNDLTMIKYAGLGVAMGNAIDEVKEAAQAVTLTNAENGVAAAIRKYALNEGHHHHHH
  protein production: not failed

## MSLTMVSEVQPVSPASLDAPLENAVEIIETVISSLHQGDAPLVGQTDSGKIWMFRYGSAEVFVQLSGHTEEDFLTIWSPVLPLPVADELALYRKLLTLNWLTTFEAHFAIAEEQVQVVASRTLGGITAGEISRLITIVATLADDYDDALRAEFKGEGHHHHHH
  protein production: not failed

## MSLTNHHPSSTGPQHPYRAGWIHFTNVAPILDSLELPPGVTAITGVPTQMNAALLSGEVDIANVSAVEFIRHADTLAALPDFSVAVLGPVYSVNLFHTCPLPELRRVALTSQSAMSVALLEVLLRQKGLSPVLERAEGTAESLLAAGYDGVLRIGDDALREWYGVVGPLTPERTMTSLPHTGRGITVTDLAQEWFDLTGHPFTFAVWAYRKDNPPPAALLQAMREARRRGIGHLAEVSQRHAEKLGLPERVVQHYLWNFRYHLEAPDRLGLREFADLAVPGHAELTFGAREEAEGHHHHHH
  protein production: not failed

## MSLTRDAASITPARVRAHVFRYPVSTPVKTSFGTMHDRPAVLVEVEDSDGAVGWGEVWCNFPACGAEHRARLVETVLAPLLTARAFADPAQAFAHLEARTAVLAIQTGEPGPLAQAIAGLDIALCDLAARRAGQPLWAWLGGSGDRIGVYASGINPENPEDVVARKAAEGYRAFKLKVGFDDARDVRNALHVRELLGAATPLMADANQGWDLPRARQMAQRLGPAQLDWLEEPLRADRPAAEWAELAQAAPMPLAGGENIAGVAAFETALAARSLRVMQPDLAKWGGFSGCLPVARAVVAAGLRYCPHYLGAGIGLQASAHLLAAVPGLASPGLLEVDANDNPLRSLLSPALATLHEGRITLGGAPGLGVTPDLAALRAACAAREGHHHHHH
  protein production: not failed

## MSLTTPTMIAAVVEEANGPFVLRKLARPQPAPGQVLVQIEASGTNPLDAKIRAGEAPHAQQPLPAILGMDLAGTVVAVGPEVDSFRVGDAVFGLTGGVGGLQGTHAQFAAVDARLLASKPAALTMRQASVLPLVFITAWEGLVDRAQVQDGQTVLIQGGGGGVGHVAIQIALARGARVFATARGSDLEYVRDLGATPIDASREPEDYAAEHTAGQGFDLVYDTLGGPVLDASFSAVKRFGHVVSCLGWGTHKLAPLSFKQATYSGVFTLHTLLANEGLAHFGEMLREADALVQTGKLAPRLDPRTFSIAEIGSAYDAVLGRNDVPRQRGKIAITVEGHHHHHH
  protein production: not failed

## MSLTTVGIRGTFFDFVDDPWKHIGNEQAAARFHQDGLMVVTDGVIKAFGPYEKIAAAHPGVEITHIKDRIIVPGFIDGHIHLPQTRVLGAYGEQLLPWLQKSIYPEEIKYKDRNYAREGVKRFLDALLAAGTTTCQAFTSSSPVATEELFEEASRRNMRVIAGLTGIDRNAPAEFIDTPENFYRDSKRLIAQYHDKGRNLYAITPRFAFGASPELLKACQRLKHEHPDCWVNTHISENPAECSGVLVEHPDCQDYLGVYEKFDLVGPKFSGGHGVYLSNNEFRRMSKKGAAVVFCPCSNLFLGSGLFRLGRATDPEHRVKMSFGTDVGGGNRFSMISVLDDAYKVGMCNNTLLDGSIDPSRKDLAEAERNKLSPYRGFWSVTLGGAEGLYIDDKLGNFEPGKEADFVALDPNGGQLAQPWHQSLIADGAGPRTVDEAASMLFAVMMVGDDRCVDETWVMGKRLYKKSEGHHHHHH
  protein production: not failed

## MSMKGKETMSNEKIVVGKFGATYGIRGWLKVFSYTDNAESIFDYSPWYINQKGKWVEYKVESWKRHNKGMVAKLEGMDVREDAHLMTNFEIAIDPAVLPELSEDEFYWRELFGMHVVTTKGYDLGVVTDMLETGSNDVLVVKANLKDAFGQKERLIPFLEEQVIIKVDREAQRIEVDWDPGFLEHHHHHH
  protein production: not failed

## MSMKILKASVFVIIVFFLMPLPVVAAKKGIYCGELKGSHYGPFDYMDRFNHSEQLKIVEDFHFTSDVEDLIRGSTSSTPAKDLNYTLHAWPNHHRALVSLFKYSIKEKSTRIKGLKYPVECYFDRAIRMNMKDVQVRSIYSAFLSHRGRNKEALEQLEVAANLEPDNATILYNLGLLYFKQKNYEKASHYAEKAYALDYPLPGLRNKLIQAGKWRGSASGRSGK
  protein production: failed

## MSMTKSEVCVIIAAKNAARTIAVAIASALREPEAAEVVVVDDGSTDNTAEVARSADDGSGRLKVMRLDVNRGPSFARNAAIAGSKAPFISILDADDFFLEGRFRNLFAAADWDFAADNIMLIRDDATNDATKIVAPDFAADPEFLDFERFVEGNISRRRVQRGELGFLKPVISRAFLDRHRLRYDESLRLGEDYELYARAVAHGARFKVIRSCGYGAIVRADSLSGRHKTQDLKRLADADLALLAIDSLPEGSKAVLRRHERHVRDKYRLRNFLDVKAERGLASAAAYAFASQSNLVPIVQGVASDKLEALFRRVGLVSRQKRVPPLRFLMAGTSAGKER
  protein production: failed
